Measurements reported in PMC5143173.

Key:
[1] = molecular target: AIF H454A (human) (UniProt O95831); assay: SAXS
[2] = molecular target: AIF S480A (human) (UniProt O95831); assay: SAXS

Row | Substance | stoichiometry N [1] | stoichiometry N [2]
1 | AIF H454A (from UniProt O95831 78-613) (domain or fragment) | 2 | 
2 | AIF S480A (from UniProt O95831 78-613) (domain or fragment) |  | 2
